The series is described as follows: label from the status in PepcDB records.

“PFCAMENQVLVIRIKIPNSGAVDWTVHSGPQLLFRDVLDVIGQVLPEATTTAFEYEDEDGDRITVRSDEEMKAMLSYYYSTVMEQQVNGQLIEPLQIFPR”: the protein production result was “not failed”.

“PGSTDFNGALILGLGIDLEKAVGWKNAFFEVEGLQYNGQPVNFAAGSVQGYNSIEAGPPLNRTELYQLWLNQTFLDNRLSFRVGKLIPSMNFGYVGRPFVTQTNPQLFTSTTGLIYTPVFVGPAMLGFIPGYYNSAFGLYGSWKSWGAPGDNPATPNGWYTQAGIYDGRGAQGVQTGLTWPNFSGALFSVAEVGGTWTPYADDPATGWGSVAVGGWRQSGPLTAPGGAFEAQTGGMYAYLVQKLGKFRDSEDQNGIVGFVQGGWNSSSTALMHSSLGFGLTFIAPFGDRPLDSYGFGFSWARLNANPLAGYGFNSYETMIQLYAQYHLVGNLFIQPVLTVLPTPGSGGAGAPSVSGTVQLTFPF”: the protein production entry was “failed”.

With “PLGVSAAGALDRASLRRANRLVGNASSAAAIESVNGGLTVEAVGDQVIAVTGAPTTLTIESPSWVGSDDDDGGARPGGKRTVPMAAPFALLDGELLTLGAPESGFRNYVAIRGGVDAPEVLGSRSADTMSGIGPAPLAIRQVLATGEQTASTAVGAPELQPDFPGAGVTVLDVVPGPRADWFDQEALDSLCNQEWLVTPQSNRVGMRLDGKPLERTREGELPSEGTMAGALQIPPAGLPVLFLADHPITGGYPVIGVVRDEHLDRAAQVPIGGRIRFRLVPDSADFTTTTTKTPEK”, the protein production result is recorded as “not failed”.

For “PLSFSLLPATRDDIAMIVDRKRAQIARTHQYDVFACGWTVTLLERLVDASAEDFGLRTATLRAGGRVVAAELGLLSEGRYHLWLPIYDPEFARYSPGALMTLDTLEALAGLGVSRVDFGVDAD”, the protein production result is “failed”.

For the sequence “PNEKFCFEGFLPQKKGRMTKLKSLVDEHRTMVFYESPHRLLKTLTQFAEYFGPERQVSVSREISKIHEETVRGTLSELIEHFTATDPRGEIVIVLAGIDD”, the protein production entry is on record as “not failed”.

As to “PPAAVGPWDDILAPLYRYTRARARELAETRETMQSMLAAAQALPDGVVTLNEDFQIDWANRMARRHLGLRLPADRGHNLLNLLRAPEFVAYAHRGHWPEPILVRLSLNGQERVMMIHLAGYAS”, the protein production result is recorded as “failed”.

Regarding “PPEAYSLDTAIFVLETRDYRLSDVKEIDSYGDVEMKGKVAVFETEYGPVFLYVYKGEEAKKIWKKLNGRAGFVSIRSVLDLPNMGKFSTVSNGKKIVAWWRKNWLFIVEGKNGVEEFVKHVYRVYEEMKQ”, the protein production entry is “not failed”.

On to “PPLYVPEQLVVHKETHQAHVMIGSRGYNAYDDKRTALYLLNNILGGPGMNSRLNVSLRERRGLVYTVESNLTSYTDTGAFCIYFGTDPEDVDTCLKLTYKELKRMRDVKMTSSQLMAAKKQLIGQIGVASDNNENNALGMAKTFLHYNKYESSESVFRRIEALTAEGLLEVANEMFAEEYLSTLIY”, for which the protein production entry was “failed”.

Consider “PQALEFEYMRWIATGARAFIDAHQDASKLRITHLGGGACTMARYFADVYPQSRNTVVELDAELARLSREWFDIPRAPRVKIRVDDARMVAESFTPASRDVIIRDVFAGAITPQNFTTVEFFEHCHRGLAPGGLYVANCGDHSDLRGAKSELAGMMEVFEHVAVIADPPMLKGRRYGNIILMGSDTEFF”, for which the protein production entry is listed as “failed”.

Take “PQPKIGILLANLGTPDNYDYWSMRRYLNEFLSDKRVIDYPAWKWQPLLQILILSKRPFSSGANYKLIWNHDKGESPLMTITKDQTAAIAAEIRSLYGNRVMVDFCMRYGNPSTESRVRAMVEAGCEKILFFPLYPHYAGATSATANDEFFRAMMKEKRQPAVRTVPEYYDNPLYIDALAQSVERAYAQLDHRPDVLVASYHGMPKRYLMAGD”: the protein production result was “failed”.

Take “PSHSLQAPEVRFSKEMECLQAMGFVNYNANLQALIATDGDTNAAIYKLKSSQGF”: the protein production result is “not failed”.

Consider “PTEFLYTSKIAAISWAATGGRQQRVYFQDLNGKIREAQRGGDNPWTGGSSQNVIGEAKLFSPLAAVTWKSAQGIQIRVYCVNKDNILSEFVYDGSKWITGQLGSVGVKVGSNSKLAALQWGGSESAPPNIRVYYQKSNGSGSSIHEYVWSGKWTAGASFGSTVPGTGIGATAIGPGRLRIYYQATDNKIREHCWDSNSWYVGGFSASASAGVSIAAISWGSTPNIRVYWQKGREELYEAAYGGSWNTPGQIKDASRPTPSLPDTFIAANSSGNIDISVFFQASGVSLQQWQWISGKGWSIGAVVPTGTPAGW”, for which the protein production entry is “not failed”.

With “PTLYEKIQQANEEAVTRIIQSKPILVGFDKAINVMPDMTETTILHAGPPITYENMCGPMKGAVQGALVFEGLAKDLADADRVARSGAITFSPCHEHDAVGSMAGVTSPNMYVHIIKNETYGNTAFTNLSEQLAKVLRFGANDQSVVDRLIWMRDVLGPLLHDAMTFCPEGIDLRLMLSQALHMGDECHNRNVAGSTLLVQALTPYMVQTDFSREQLKEVFEFLGSSDYFSGPTWMGAAKCALDAGHNVENSTIVTTMCRNGVEFGIRVSGIGGNHWFTGPAQRVIGPMFAGYTQEDAGLDMGDSAITETYGVGGFAMAAAPAIVPLVGGTVAEALNYSKEMLEITTKENPNVTIPVLDFMGIPTGIDVLKVLETGMLPVINTAIAHKEPGIGMIGAGLTNPPANVFNEALKALVATIN”, the protein production result is on record as “not failed”.

Turning to “PTPKTELVQKFRVQYLGMLPVDRPVGMDTLNSAIENLMTSSSKEDWPSVNMNVADATVTVISEKNEEEVLVECRVRFLSFMGVGKDVHTFAFIMDTGNQRFECHVFWCEPNAANVSEAVQAACSGPSSGIEGRGSSGSSGSSGSSGDAAVTPEERHLSKMQQNGYENPTYKFFEQMQN”, the protein production entry was “not failed”.

For the sequence “PVPGIRCRDAFSAASGIIDKMACVPELAVSEISAPRIVSSLAGDGHALFVANSMPARDMDLYAAPVAQKPLQVALNRGVSGIDGIISTAAGFSAGLGKPTTLLIGDISFLHDLNALCLLNHPWNPLIVIVLNNHGGSIFSFLPIASQTDRLDECFATPQNFSIESAARTFGIDYACPETNGDFTQLYAEALTTKKSLIIEIRSDREKNLLLHRSLKARLDPVFEKADC”, the protein production entry is reported as “failed”.

Consider “QAIHNDKSLLSPFSELNTDNRTKREESGSTFKEQKGGEFSKLLKQSINELNNTQEQSDKALADMATGQIKDLHQAAIAIGKAETSMKLMLEVRNKAISAYKELLRTQI”, for which the protein production entry is listed as “failed”.

For “QAQITGRPEWIWLALGTALMGLGTLYFLVKGMGVSDPDAKKFYAITTLVPAIAFTMYLSMLLGYGLTMVPFGGEQNPIYWARYADWLFTTPLLLLDLALLVDADQGTILALVGADGIMIGTGLVGALTKVYSYRFVWWAISTAAMLYILYVLFFGFTSKAESMRPEVASTFKVLRNVTVVLWSAYPVVWLIGSEGAGIVPLNIETLLFMVLDVSAKVGFGLILLRSRAIFGEAEAPEPSAGDGAAATSD”, the protein production result was “failed”.

With “QDKKEQFKQLFQIVEQSFGRPLSPYEIETLNQWIDVDHHDLSVIQAALDEALSQNKLSFKYIDRILLNWKKNNV”, the protein production result is “not failed”.

On to “QDVLRGTLNLYCSVTAAYSHLPQLLERFRQEHPFVEIALTTGDAANALAEIQQNRADIAIAALPDPFPATLHFAKIDDVPLSLIAPTMRCAVQQQISQTQIDWARVPFIIPDHGPGRRRADNWFKQMGISPNIYAQVSGQEAIASMVALG”, for which the protein production result is “failed”.

Consider “QESVEDSLATVKVVLIPVGQEIVIPFKVDTILKYLKDHFSHLLGIPHSVLQIRYSGKILKNNETLVQHGVKPQEIVQVEIFSTNPDLYPVRRIDGLTDVSQIITV”, for which the protein production result is recorded as “not failed”.

As to “QGEEMNRSQEVTRDEESTRSEEVTREEMAAAGLTVTVTHSNEKHDLHVTSQQGSSEPVVQDLAQVVEEVIGVPQSFQKLIFKGKSLKEMETPLSALGIQDGCRVMLIGKKNSPQEEV”, the protein production result is recorded as “failed”.

Turning to “QGHWFAIHSGTLGIMVNVDALGGLPVPQSWADLLKPEYKGMVGYLDPSSAFVGYVSAVAINQAMGGSLDNFGPAIDYFQKLAKNSPIVPKQTAYARALSGELPILVDYDFNAYRARYKDKANVAFVIPKEGTIGVPYVMSMVAKAPHRANAEKVLDFVLSDAGQALWAKAYLRPVR”, the protein production result is “failed”.

With “QHTEERELKKRLMNTARTVSEMTEVKEALARKKQTEAVRHAVEEIRMINEADYIVVMDMNHIRYTHPVSTSIGKKSEGADEEAAFAEHIYFSEAKGEIGTAVRAFYPVKDQDLNQIGVVLVGKTLPGIAD”, the protein production entry is recorded as “failed”.

Values taken from a protein production outcome set (Wang et al. 2014).
